{"source": "paper PMC10019796", "about": "(Scientific Reports, 2023)", "binders": {"B1": {"name": "REGN10933 (Casirivimab) Fab wild type (Fab, V domains shown)", "VH": "QVQLVESGGGLVKPGGSLRLSCAASGFTFSDYYMSWIRQAPGKGLEWVSYITYSGSTIYYADSVKGRFTISRDNAKSSLYLQMNSLRAEDTAVYYCARDRGTTMVPFDYWGQGTLVTVSS", "VL": "DIQMTQSPSSLSASVGDRVTITCQASQDITNYLNWYQQKPGKAPKLLIYAASNLETGVPSRFSGSGSGTDFTFTISGLQPEDIATYYCQQYDNLPLTFGGGTKVEIK", "notes": "Fab heavy chain of REGN10933; Fab light chain of REGN10933; Polycistronic gene, light chain upstream of heavy chain; also called REGN10933 wild type; REGN10933 Fab"}, "B2": {"name": "REGN10933 (T28E) Fab (Fab, V domains shown)", "VH": "B1 VH with T28E", "VL": "B1 VL"}, "B3": {"name": "REGN10933 (A75S) Fab (Fab, V domains shown)", "VH": "B1 VH with A75S", "VL": "B1 VL"}, "B4": {"name": "REGN10933 (M104N) Fab (Fab, V domains shown)", "VH": "B1 VH with M104N", "VL": "B1 VL"}, "B5": {"name": "REGN10933 (N93Q) Fab (Fab, V domains shown)", "VH": "B1 VH", "VL": "B1 VL with N93Q"}, "B6": {"name": "REGN10987 (Imdevimab) Fab wild type (Fab, V domains shown)", "VH": "QVQLVESGGGVVQPGRSLRLSCAASGFTFSNYAMYWVRQAPGKGLEWVAVISYDGSNKYYADSVKGRFTISRDNSKNTLYLQMNSLRTEDTAVYYCASGSDYGDYLLVYWGQGTLVTVSS", "VL": "QSALTQPASVSGSPGQSITISCTGTSSDVGGYNYVSWYQQHPGKAPKLMIYDVSKRPSGVSNRFSGSKSGNTASLTISGLQSEDEADYYCNSLTSISTWVFGGGTKLTVL", "notes": "Fab heavy chain of REGN10987; Fab light chain of REGN10987; Polycistronic gene, light chain upstream of heavy chain; also called REGN10987 wild type; REGN10987 Fab"}, "B7": {"name": "REGN10987 (S95K) Fab (Fab, V domains shown)", "VH": "B6 VH", "VL": "B6 VL with S95K"}, "B8": {"name": "REGN10987 (N31D) Fab (Fab, V domains shown)", "VH": "B6 VH with N31D", "VL": "B6 VL"}}, "note": "Where a chain is given by its changes, count along the chain named. Numbers in names are those of the source."}
{"target": "T1, mtDsbC-SARS-CoV-2 RBD Alpha variant (B.1.1.7) fusion protein (SARS-CoV-2, Alpha (B.1.1.7), RBD N501Y, N501Y, biotin (EZ-Link NHS-PEG4-Biotin))", "T1 construct": "also called RBD SARS-CoV-2 (alpha variant); not shown: mtDsbC solubility tag, N-terminal, kept", "assay": "BLI; biotinylated mtDsbC-RBD (20 µg/mL) immobilised on streptavidin (SA) biosensors, Fabs as analytes at three nanomolar concentrations; Octet RED384, 30 °C, 1000 rpm, 1 × PBS Kinetics Buffer; 1:1 interaction model, global fit", "conditions": "both partners purified", "units": {"Kd": "nM"}}
{"binder": "B1", "Kd": 3.12}
{"binder": "B2", "Kd": "< 0.001"}
{"binder": "B3", "Kd": 2.75}
{"binder": "B4", "Kd": 119}
{"binder": "B5", "Kd": 3.42}
{"binder": "B6", "Kd": 54.1}
{"binder": "B7", "Kd": 22.8}
{"binder": "B8", "Kd": 13.7}
{"target": "T2, mtDsbC-SARS-CoV-2 RBD wild type fusion protein (SARS-CoV-2, wild type (Wuhan-Hu-1), UniProt P0DTC2, biotin (EZ-Link NHS-PEG4-Biotin))", "T2 construct": "also called RBD SARS-CoV-2 (wild type); mtDsbC-RBD; not shown: mtDsbC solubility tag, N-terminal, kept", "assay": "BLI; biotinylated mtDsbC-RBD (20 µg/mL) immobilised on streptavidin (SA) biosensors, Fabs as analytes at three nanomolar concentrations; Octet RED384, 30 °C, 1000 rpm, 1 × PBS Kinetics Buffer; 1:1 interaction model, global fit", "conditions": "both partners purified", "units": {"Kd": "nM"}}
{"binder": "B1", "Kd": 2.84}
{"binder": "B2", "Kd": "< 0.001"}
{"binder": "B3", "Kd": 3.22}
{"binder": "B4", "Kd": 143}
{"binder": "B5", "Kd": 2.76}
{"binder": "B6", "Kd": 43.9}
{"binder": "B7", "Kd": 30.5}
{"binder": "B8", "Kd": 17.9}
